Data published in patent WO2022194311A2.

Tests used:
Assay in all cases: SPR (Biacore 8K), His-tagged FcRn captured by anti-His antibody on CM5 chip, pH 6.0
rat FcRn (rat) = rat FcRn (rat) (UniProt P13599)
human FcRn (human) = human FcRn (human) (UniProt P55899)
[1] = target: cynomolgus monkey FcRn (cynomolgus monkey) (UniProt Q8SPV9)

Measured: Kd

Sequence of rat FcRn (rat) (P13599 23-298 limits assumed, form in doubt): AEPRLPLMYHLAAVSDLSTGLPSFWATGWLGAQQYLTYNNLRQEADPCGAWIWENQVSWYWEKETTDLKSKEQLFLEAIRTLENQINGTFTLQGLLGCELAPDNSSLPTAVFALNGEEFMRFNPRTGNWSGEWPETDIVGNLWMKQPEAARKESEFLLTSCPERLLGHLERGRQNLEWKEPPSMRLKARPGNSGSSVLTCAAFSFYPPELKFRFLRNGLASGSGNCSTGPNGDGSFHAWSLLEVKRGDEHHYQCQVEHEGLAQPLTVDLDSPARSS
Sequence of human FcRn (human) (P55899 24-297 limits assumed, form in doubt): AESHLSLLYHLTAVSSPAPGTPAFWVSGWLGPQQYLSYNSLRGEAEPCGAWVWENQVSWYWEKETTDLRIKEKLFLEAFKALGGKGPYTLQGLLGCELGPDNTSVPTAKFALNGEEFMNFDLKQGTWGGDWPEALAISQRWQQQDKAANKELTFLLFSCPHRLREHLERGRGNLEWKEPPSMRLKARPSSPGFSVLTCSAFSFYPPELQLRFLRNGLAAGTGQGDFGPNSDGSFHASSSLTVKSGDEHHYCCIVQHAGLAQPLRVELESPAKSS
Sequence of cynomolgus monkey FcRn (cynomolgus monkey) (Q8SPV9 24-297 limits assumed, form in doubt): as the sequence (P55899 24-297 limits assumed, form in doubt) above, with N39D, E44Q, G99S, S189G, S190N, L217M, S269T counted along it

secukinumab (Cosentyx) (antibody)
10 nM: rat FcRn (rat) | human FcRn (human) | [1]
